Experimental data as given in patent US20250154279A1 (BEIGENE, published 2025).

Legend:
mouse CD137 = target: T1, mouse CD137 (mouse, UniProt P20334 24-187, limits assumed); experiment: antigen ELISA
T1 construct: Coated antigen in ELISA; construct not described
T1 sequence (looked up): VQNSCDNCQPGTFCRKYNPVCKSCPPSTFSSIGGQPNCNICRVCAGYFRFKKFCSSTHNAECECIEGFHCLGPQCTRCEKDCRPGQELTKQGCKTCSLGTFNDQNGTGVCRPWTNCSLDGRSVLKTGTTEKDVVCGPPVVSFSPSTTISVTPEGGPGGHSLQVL
Procedure: (§1) For antigen ELISA, a Maxisorp immunoplate was coated with antigens and blocked with 3% BSA (w/v) in PBS buffer (blocking buffer). Monoclonal VHH antibodies were blocked with blocking buffer for 30 minutes and added to wells of the ELISA plate for 1 hour. After washes with PBST, bound antibodies were detected using HRP-conjugated anti-human IgG antibody (Sigma, A0170) and 3,3′,5,5′-tetramethylbenzidine substrate (Cat.: 00-4201-56, eBioscience, USA). Ligand competition was also applied in a ELISA assay.

huCD137-his = target: T2, huCD137-his; experiment: antigen ELISA, coated huCD137-his, detection with HRP anti-human IgG, single antibody concentration not given; competitor where added: 20 ug/ml CD137L
T2 construct: The sheet prints only 'huCD137-his'; also called human CD137-ECD-his
T2 extracellular domain with C-terminal His tag: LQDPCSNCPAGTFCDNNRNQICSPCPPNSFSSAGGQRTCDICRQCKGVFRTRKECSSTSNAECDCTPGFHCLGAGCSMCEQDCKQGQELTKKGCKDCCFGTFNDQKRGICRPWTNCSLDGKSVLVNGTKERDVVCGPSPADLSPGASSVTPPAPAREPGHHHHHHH
Procedure: as §1

human CD137 ECD-mIgG2a [1] = target: T3, human CD137 ECD-mIgG2a (human); experiment: antigen ELISA, coated huCD137-mIgG2a, detection with HRP anti-human IgG, single antibody concentration not given; competitor where added: 20 ug/ml CD137L
T3 construct: also called huCD137
Procedure: as §1

[2] = target: T4, human GPC3 expressed on HepG2 cells (human, UniProt P51654 25-554); experiment: flow cytometry on HepG2 cells
T4 construct: also called native huGPC3; native GPC3
T4 sequence (P51654 25-554 limits assumed): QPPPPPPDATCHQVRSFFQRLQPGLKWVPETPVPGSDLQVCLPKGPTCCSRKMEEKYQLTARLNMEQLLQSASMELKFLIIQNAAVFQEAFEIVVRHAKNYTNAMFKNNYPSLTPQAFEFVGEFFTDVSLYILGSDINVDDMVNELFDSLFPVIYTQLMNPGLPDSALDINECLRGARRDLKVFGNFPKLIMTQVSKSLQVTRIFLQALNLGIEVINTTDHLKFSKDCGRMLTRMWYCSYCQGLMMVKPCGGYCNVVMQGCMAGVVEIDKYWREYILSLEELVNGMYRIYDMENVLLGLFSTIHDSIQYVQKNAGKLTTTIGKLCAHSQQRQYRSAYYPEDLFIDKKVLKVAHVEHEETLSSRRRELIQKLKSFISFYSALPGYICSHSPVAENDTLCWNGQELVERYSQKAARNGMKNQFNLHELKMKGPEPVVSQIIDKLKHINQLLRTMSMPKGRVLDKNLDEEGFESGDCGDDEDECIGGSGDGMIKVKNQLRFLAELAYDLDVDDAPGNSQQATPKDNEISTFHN
Procedure: (§2) Briefly, anti-kappa antibody was immobilized on an activated CM5 biosensor chip (Cat.: BR100839, GE Life Sciences). […] Then a serial dilution (6.0 nM to 2150 nM) of human CD137 ECD-mIgG2a or huGPC3-His were flowed over the chip surface and changes in surface plasmon resonance signals were analyzed to calculate the association rates (kₒₙ) and dissociation rates (koff) by using the one-to-one Langmuir binding model (BIA Evaluation Software, GE Life Sciences). The equilibrium dissociation constant (KD) was calculated as the ratio koff/kₒₙ. […] Goat anti-Human IgG was used as secondary antibody to detect antibody binding to the cell surface. EC₅₀ values for dose-dependent binding to human native CD137 were determined by fitting the dose-response data to the four-parameter logistic model with GraphPad Prism™. […] Goat anti-Human IgG was used as secondary antibody to detect antibody binding to the cell surface. EC₅₀ values for dose-dependent binding to human native GPC3 were determined by fitting the dose-response data to the four-parameter logistic model with GraphPad Prism™.

[3] = target: T5, human CD137 over-expressed on HuT78 cells (HuT78/CD137) (human, UniProt Q07011 24-255); experiment: flow cytometry on live Hut78/huCD137 cells
T5 construct: also called Hut78/huCD137; native CD137
T5 sequence (Q07011 24-255 limits assumed): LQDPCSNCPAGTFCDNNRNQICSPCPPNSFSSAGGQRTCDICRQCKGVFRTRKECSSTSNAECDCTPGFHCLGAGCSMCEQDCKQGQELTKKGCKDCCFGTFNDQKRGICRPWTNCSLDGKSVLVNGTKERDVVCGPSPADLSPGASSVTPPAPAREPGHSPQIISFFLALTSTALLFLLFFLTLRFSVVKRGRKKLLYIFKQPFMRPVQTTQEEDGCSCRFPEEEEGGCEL
Procedure: as §2

huGPC3-His = target: T6, huGPC3-His (human, UniProt P51654 25-559, limits assumed); experiment: SPR (BIAcore T-200), BE-774 captured by anti-kappa antibody, huGPC3-His flowed over
T6 construct: not shown: His tag
T6 sequence (P51654 25-559 limits assumed): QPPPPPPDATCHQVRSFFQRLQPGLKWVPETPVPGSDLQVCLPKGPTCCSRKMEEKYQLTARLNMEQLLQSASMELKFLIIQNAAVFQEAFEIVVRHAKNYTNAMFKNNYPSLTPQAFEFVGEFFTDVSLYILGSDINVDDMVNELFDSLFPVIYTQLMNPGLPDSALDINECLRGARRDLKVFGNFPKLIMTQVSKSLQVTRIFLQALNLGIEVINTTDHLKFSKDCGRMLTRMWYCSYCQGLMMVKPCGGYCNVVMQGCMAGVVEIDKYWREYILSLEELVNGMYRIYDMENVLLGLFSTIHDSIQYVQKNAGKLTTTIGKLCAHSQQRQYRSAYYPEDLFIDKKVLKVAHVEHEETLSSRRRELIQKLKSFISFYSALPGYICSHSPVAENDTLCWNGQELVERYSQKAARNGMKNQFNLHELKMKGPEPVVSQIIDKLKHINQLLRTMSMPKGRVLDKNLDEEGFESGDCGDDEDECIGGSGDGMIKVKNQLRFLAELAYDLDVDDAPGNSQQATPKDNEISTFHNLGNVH
Procedure: as §2

human CD137 ECD-mIgG2a [4] = target: T3, human CD137 ECD-mIgG2a; experiment: SPR (BIAcore T-200), BE-774 captured by anti-kappa antibody, human CD137 ECD-mIgG2a flowed over
Procedure: as §2

[5] = target: T7, human CD137 (Cat.: 41B-H5256, Acrobio, CHINA) (human, UniProt Q07011 24-186); experiment: SPR
T7 construct: Bought protein
Procedure: (§3) The binding kinetics of the antibodies were measured using surface plasmon resonance (SPR). SPR was used to measure the on-rate constant (Kₐ) and off-rate constant (Kd) of the antibodies to recombinant proteins of CD137 and GPC3 and then determined the affinity constant (KD).

[6] = target: T8, cynomolgus monkey CD137 ECD (cynomolgus monkey); experiment: SPR
T8 construct: also called Cyno CD137; Cyno CD137 ECD
T8 chain: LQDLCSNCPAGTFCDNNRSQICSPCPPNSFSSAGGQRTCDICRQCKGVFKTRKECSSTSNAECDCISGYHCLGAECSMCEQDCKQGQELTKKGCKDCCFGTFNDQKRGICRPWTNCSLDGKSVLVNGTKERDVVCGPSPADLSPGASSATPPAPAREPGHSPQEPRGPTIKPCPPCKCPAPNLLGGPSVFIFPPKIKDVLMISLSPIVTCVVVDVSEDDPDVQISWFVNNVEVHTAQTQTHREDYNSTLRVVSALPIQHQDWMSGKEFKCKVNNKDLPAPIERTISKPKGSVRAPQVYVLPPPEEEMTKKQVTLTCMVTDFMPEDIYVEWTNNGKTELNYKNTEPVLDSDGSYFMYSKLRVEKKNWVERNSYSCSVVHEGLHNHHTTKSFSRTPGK
Procedure: as §3

[7] = target: T9, human GPC3 (Cat.: 10088-H08H, Sino Biological, CHINA) (human, UniProt P51654 25-559); experiment: SPR
T9 construct: Bought protein
T9 sequence (P51654 25-559 limits assumed): as the sequence (P51654 25-559 limits assumed) above
Procedure: as §3

[8] = target: T10, cynomolgus monkey GPC3 (Cat.: GP3-C5225, Acrobio, CHINA) (cynomolgus monkey, UniProt A0A2K5VK50 24-558); experiment: SPR
T10 construct: also called Cyno GPC3
Procedure: as §3

[9] = target: T4, human GPC3 expressed on HepG2 cells; experiment: FACS on HepG2 cells
[10] = target: T5, human CD137 over-expressed on HuT78 …; experiment: FACS on HuT78/CD137 cells
[11] = target: T5, human CD137 over-expressed on HuT78 …; experiment: flow cytometry on HuT78/CD137 cells, detection anti-hFc 647, no CD137L added

B1: BGA-9612 VHH-Fc (camelid anti-huCD137 VHH fused at the N terminal of human IgG1 Fc-null with a G4S linker) (VHH)
VHH: QVQLVESGGGTVQPGDSLRLSCAASGRTFDNYAVGWFRQAPGKERQYVGTYWSGYAHYGDFENNRFTISRDNAKNTVYLQMDNLKPEDTAVYYCAISLKYPMATVTPDYQGQGTQVTVSS
Mouse CD137
  binding result: no binding
huCD137-his
  binding result: binds
Human CD137 ECD-mIgG2a [1]
  binding result: binds

B2: BE-774 (anti-GPC3 x CD137 bispecific antibody, GPC3 antibody + VHH BGA-9612, IgG1mf Fc-YTE) (bispecific antibody)
heavy: QVQLVQSGAEVKKPGASVKVSCKASGYTFTDYEMHWVRQAPGQGLEWMGALDPKTGDTAYSQKFKGRVTLTADKSTSTAYMELSSLTSEDTAVYYCTRFYSYTYWGQGTLVTVSSASTKGPSVFPLAPSSKSTSGGTAALGCLVKDYFPEPVTVSWNSGALTSGVHTFPAVLQSSGLYSLSSVVTVPSSSLGTQTYICNVNHKPSNTKVDKKVEPKSCDKTHTCPPCPAPPAAGPSVFLFPPKPKDTLYITREPEVTCVVVDVSHEDPEVKFNWYVDGVEVHNAKTKPREEQYNSTYRVVSVLTVLHQDWLNGKEYKCKVSNKALAAPIEKTISKAKGQPREPQVYTLPPSREEMTKNQVSLTCLVKGFYPSDIAVEWESNGQPENNYKTTPPVLDSDGSFFLYSKLTVDKSRWQQGNVFSCSVMHEALHNHYTQKSLSLSPGKGGGGSEVQLVESGGGTVQPGDSLRLSCAASGRTFDNYAVGWFRQAPGKERQYVGTYWSGYAHYGDFENNRFTISRDNAKNTVYLQMDNLKPEDTAVYYCAISLKYPMATVTPDYQGQGTQVTVSS
light: DVVMTQSPLSLPVTPGEPASISCRSSQSLVHSNRNTYLHWYLQKPGQSPQLLIYKVSNRFSGVPDRFSGSGSGTDFTLKISRVEAEDVGVYYCSQNTHVPPTFGQGTKLEIKRTVAAPSVFIFPPSDEQLKSGTASVVCLLNNFYPREAKVQWKVDNALQSGNSQESVTEQDSKDSTYSLSSTLTLSKADYEKHKVYACEVTHQGLSSPVTKSFNRGEC
[2]
  EC50: 0.9 nM
[3]
  EC50: 0.7 nM
huGPC3-His
  Kd: 1.01 nM
  koff: 0.00022 s⁻¹
  kon: 218000 M⁻¹ s⁻¹
Human CD137 ECD-mIgG2a [4]
  Kd: 0.529 nM
  koff: 0.000425 s⁻¹
  kon: 804000 M⁻¹ s⁻¹

B3: BE-915 (anti-GPC3 x CD137 bispecific antibody, GPC3 antibody + VHH BGA-2524, IgG1mf Fc-YTE) (bispecific antibody)
heavy: QVQLVQSGAEVKKPGASVKVSCKASGYTFTDYEMHWVRQAPGQGLEWMGALDPKTGDTAYSQKFKGRVTLTADKSTSTAYMELSSLTSEDTAVYYCTRFYSYTYWGQGTLVTVSSASTKGPSVFPLAPSSKSTSGGTAALGCLVKDYFPEPVTVSWNSGALTSGVHTFPAVLQSSGLYSLSSVVTVPSSSLGTQTYICNVNHKPSNTKVDKKVEPKSCDKTHTCPPCPAPPAAGPSVFLFPPKPKDTLYITREPEVTCVVVDVSHEDPEVKFNWYVDGVEVHNAKTKPREEQYNSTYRVVSVLTVLHQDWLNGKEYKCKVSNKALAAPIEKTISKAKGQPREPQVYTLPPSREEMTKNQVSLTCLVKGFYPSDIAVEWESNGQPENNYKTTPPVLDSDGSFFLYSKLTVDKSRWQQGNVFSCSVMHEALHNHYTQKSLSLSPGKGGGGSEVQLVESGGGLVQPGGSLRLSCAASGRTFDNYAVGWFRQAPGKEREYVGTYWSGYAHYGDFENNRFTISRDNAKNTVYLQMNNLRPEDTAVYYCAISLKYPMATVTPDYQGQGTQVTVSS
light: DVVMTQSPLSLPVTPGEPASISCRSSQSLVHSNRNTYLHWYLQKPGQSPQLLIYKVSNRFSGVPDRFSGSGSGTDFTLKISRVEAEDVGVYYCSQNTHVPPTFGQGTKLEIKRTVAAPSVFIFPPSDEQLKSGTASVVCLLNNFYPREAKVQWKVDNALQSGNSQESVTEQDSKDSTYSLSSTLTLSKADYEKHKVYACEVTHQGLSSPVTKSFNRGEC
[5]
  Kd: 3.6 nM
  koff: 0.00042 s⁻¹
  kon: 120000 M⁻¹ s⁻¹
[6]
  Kd: 4.4 nM
  koff: 0.00055 s⁻¹
  kon: 130000 M⁻¹ s⁻¹
[7]
  Kd: 2.4 nM
  koff: 0.00014 s⁻¹
  kon: 58000 M⁻¹ s⁻¹
[8]
  Kd: 0.53 nM
  koff: 0.00011 s⁻¹
  kon: 210000 M⁻¹ s⁻¹
[9]
  EC50: 1.09 nM
[10]
  EC50: 0.69 nM
[11]
  EC50 (read off the curve): ~0.1 µg/mL
